Legend:
[1] = tested on: RAJI-MPL cells; test: Jurkat-NFAT-EGFP reporter assay, co-culture with RAJI-MPL or RAJI-vector cells (Table 25); type: cell-based, human; settings: RAJI-MPL cells compared with RAJI-vector cells
Excerpt: (§1) Cells were subsequently co-cultured with MPL-expressing HEL.92.1.7 (HEL) cells. […] CAR construct with HEL cells. The experiment was repeated by co-culturing the Jurkat-NFAT-EGFP cells with either RAJI cells, which have weak MPL expression, or with RAJI-MPL cells that were engineered to ectopically express human MPL receptor.

[2] = tested on: MPL-expressing HEL.92.1.7 (HEL) cells; test: Jurkat-NFAT-EGFP reporter assay, co-culture with HEL cells (Table 25); type: cell-based, human; settings: FACS
Excerpt: as §1

[3] = tested on: HEL cells stably expressing GLuc; test: GLuc cell death assay, HEL-GLuc target cells
Experimental: The blood samples to isolate Peripheral blood mononuclear cells (PBMCs) were obtained from healthy de-identified adult donors. PBMC were isolated from buffy coats by Ficoll-Hypaque gradient centrifugation and re-suspended in XVIVO medium (Lonza) supplanted with 10 ng/ml soluble anti-CD3, 10 ng/ml soluble anti-CD28 and 100 IU recombinant human-IL2. […] The PBMC expressing the indicated CARs and uninfected PBMC were co-cultured with HEL-GLuc target cells for 4 h and lysis of target cells measured by the single-step homogenous GLuc assay by injecting 0.5× CTZ assay buffer as described above.
Cells were selected with puromycin and expanded.
Cells were subsequently co-cultured overnight with HEL.92.1.7 cells that had been engineered to express GLuc.

[4] = tested on: Jurkat cells stably expressing MPL and GLuc; test: GLuc cell death assay, Jurkat-MPL-GLuc target cells; settings: T cells, puromycin selected, E:T 10:1, 4 hours
[5] = tested on: RAJI cells stably expressing GLuc; test: GLuc cell death assay, RAJI-GLuc target cells
Excerpt: Cells were left unselected or selected with puromycin and expanded.

B1: CD8SP-175-(vL-vH)-Myc-CD28z-T2A-PAC(031615-Q04): CAR construct targeting MPL, 175 scFv, CD28 costimulatory domain (protein)
chain: MALPVTALLLPLALLLHAARPDQIVLTQSPAIMSASPGEKVTISCSASSSVSYMYWYQQKPGSSPKPWIYRTSNLASGVPARFSGSGSGTSYSLTISNMEAEDAAAYYCQQYHSYPTTFGGGTKLEVKGGGGSGGGGSGGGGSEVQLVESGGGLVQPKGSLKLSCAASGFSFNTYAMNWVRQAPGKGLEWIAHIRSKSNNFATYYADSVKDRFSISRDASENILFLQMNNLKTEDTAMYYCVRQGGDFPMDYWGQGTSVTVSSTREQKLISEEDLKIEVMYPPPYLDNEKSNGTIIHVKGKHLCPSPLFPGPSKPFWVLVVVGGVLACYSLLVTVAFIIFWVRSKRSRLLHSDYMNMTPRRPGPTRKHYQPYAPPRDFAAYRSRVKFSRSADAPAYQQGQNQLYNELNLGRREEYDVLDKRRGRDPEMGGKPRRKNPQEGLYNELQKDKMAEAYSEIGMKGERRRGKGHDGLYQGLSTATKDTYDALHMQALPPRSSGSGEGRGSLLTCGDVEENPGPHMTEYKPTVRLATRDDVPRAVRTLAAAFADYPATRHTVDPDRHIERVTELQELFLTRVGLDIGKVWVADDGAAVAVWTTPESVEAGAVFAEIGPRMAELSGSRLAAQQQMEGLLAPHRPKEPAWFLATVGVSPDHQGKGLGSAVVLPGVEAAERAGVPAFLETSAPRNLPFYERLGFTVTADVEVPEGPRTWCMTRKPGA
modifications: listed as DNA
notes: CAR construct targeting MPL, 175 scFv, CD28 costimulatory domain
In the case of B1, the “EGFP expression (NFAT-EGFP reporter)” value [1] is reported as “strongest”, the “EGFP expression (NFAT-EGFP reporter)” value [2] is reported as “strongest” and the “killing of HEL-GLuc cells” value ([3]; CAR-expressing PBMC, 4 h, versus uninfected PBMC) is reported as “increased killing”. The “GLuc activity (lysis of target cells)” value ([3]; T cells, puromycin selected, E:T 10:1, 4 hours) was “stronger” and the “GLuc activity (lysis of target cells)” value [4] was “stronger”.

B2: CD8SP-CD19Bu12-(vL-vH)-Myc-BBz-T2A-PAC(082815-P08): CD19 CAR with scFv from humanized CD19 antibody huCD19-Bu12, 41BB and CD3z (protein)
chain: MALPVTALLLPLALLLHAARPDEIVLTQSPATLSLSPGERATLSCSASSSVSYMHWYQQKPGQAPRLLIYDTSKLASGIPARFSGSGSGTDFTLTISSLEPEDVAVYYCFQGSVYPFTFGQGTKLEIKRGGGGSGGGGSGGGGSQVQLQESGPGLVKPSQTLSLTCTVSGGSISTSGMGVGWIRQHPGKGLEWIGHIWWDDDKRYNPALKSRVTISVDTSKNQFSLKLSSVTAADTAVYYCARMELWSYYFDYWGQGTLVTVSSTREQKLISEEDLAKPTTTPAPRPPTPAPTIASQPLSLRPEACRPAAGGAVHTRGLDFACDIYIWAPLAGTCGVLLLSLVITLYCKRGRKKLLYIFKQPFMRPVQTTQEEDGCSCRFPEEEEGGCELRVKFSRSADAPAYQQGQNQLYNELNLGRREEYDVLDKRRGRDPEMGGKPRRKNPQEGLYNELQKDKMAEAYSEIGMKGERRRGKGHDGLYQGLSTATKDTYDALHMQALPPRSSGSGEGRGSLLTCGDVEENPGPHMTEYKPTVRLATRDDVPRAVRTLAAAFADYPATRHTVDPDRHIERVTELQELFLTRVGLDIGKVWVADDGAAVAVWTTPESVEAGAVFAEIGPRMAELSGSRLAAQQQMEGLLAPHRPKEPAWFLATVGVSPDHQGKGLGSAVVLPGVEAAERAGVPAFLETSAPRNLPFYERLGFTVTADVEVPEGPRTWCMTRKPGA
modifications: listed as DNA
B2 was tested, and the “cell death (increase in Gluc activity)” value ([5]; RAJI-pLenti-Gluc cells incubated with the CAR-T cells) was “significant induction of cell death” and the “GLuc activity (lysis of target cells)” value ([5]; T cells with or without puromycin selection, E:T 10:1, 96 hours) was “increase in GLuc activity”.

From patent publication US20240166755A1, “CHIMERIC ANTIGEN RECEPTORS TARGETING CANCER” (University of Southern California, priority 2016, published 2024)
